Results from the RNAGym collection of RNA variant scans (doi:10.1073/pnas.2313332121).
This sample holds only a part of the variants without activity.

B1: TPR 5TU (parent)
chain: GGAUCUUCUCGAUCUAACAAAAAAGACAAAUCUGCCACAAAGCUUGAGAGCAUCUUCGGAUGCAGAGGCGGCAGCCUUCGGUGGCGCGAUAGCGCCAACGUUCUCAACUAUGACACGCAAAACGCGUGCUCCGUUGAAUGGAGUUUAUCAUG

Variants of: B1
Experiment: polymerase ribozyme fitness, log enrichment relative to wild type (log ratio); higher = more active; in vitro selection for triplet polymerase activity
Outline: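 To select mutant libraries of each subunit of a heterodimeric triplet polymerase ribozyme, built by PCR and transcribed, each was annealed with a biotinylated primer, partner subunit and triplets, then incubated frozen at −7 °C. Extended constructs were gel-excised, captured on streptavidin beads and amplified by RT-PCR, in one round carried out in triplicate. Illumina sequencing of input and output libraries kept genotypes with ≥10 input reads and ≥1 read per output. Fitness is the base-2 logarithm of genotype enrichment relative to wild-type enrichment, from inverse-variance-weighted replicate averages.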

Variant | polymerase ribozyme fitness (log ratio)
C18G A23U A39G U55G A73U A89G A97U | ≤ -4.2
A17U A26U U45A A64G C85G A138G G143U | ≤ -4.2
A17G C85U A115U C125A U144G A150C | ≤ -4.2
C18A A19G C57A C87U C129A U135G | ≤ -4.2
C18A A19C G50U C75U A110U | ≤ -4.2
A17U A20C C57U A60U C93A G94U A122C G126U | ≤ -4.2
C18A C38U C51U C96G C116G U148A | ≤ -4.2
C18A A20U C69A G88U C93G C99G U111A G124A G140C | ≤ -4.2
C18A A21U A52G C54U G92A C103A | ≤ -4.2
C18G A49C G67U G84U A107U | ≤ -4.2
C18G C72U G86U G88C A150G | ≤ -4.2
A17U A29C C43G G86A U135C | -4.06
C18G A120C | -1.21
C18U A37C G74C G81C | ≤ -4.2
C18G U56G C85U | -0.856
A17U G42U C99A C105U A120U | ≤ -4.2
A17U C57G | -0.677
C18G C38A C93U C105U A113C | -4.17
C18U A37G U56A C87G C103U | ≤ -4.2
A17U A19G C36U G42C G50A A73U A147C | ≤ -4.2
C18A A30G C38U G48C G71A A89U C96U A97C | ≤ -4.2

Variant | polymerase ribozyme fitness (log ratio)
A17U G84A C123G | -0.525
C18G C38G G81C C93G | ≤ -4.2
A17U C54A U90G C96A C118G | ≤ -4.2
A17U C93A G94U A121U A150G | ≤ -4.2
A17U C87U C96U U104C A107U G141U | ≤ -4.2
A17G G84A C93A A98G C129G | ≤ -4.2
A17U C95U | -0.895
C18G C85G | -2.28
C18G C85A | -1.49
A17U U53G C99A C125G G141U U146C | ≤ -4.2
A17U A98G | -0.0344
A17U C36G G67U C87G C95G C99A C103A | ≤ -4.2
A17U C27G G58C C96A C116U | ≤ -4.2
A17U G65C A89U C93G G112C | ≤ -4.2
C18G A26U G86C A150U | -3.07
A17U A26C G62U U78G G100A G152U | ≤ -4.2
C18G A19U G83U C95U C118U U144A | -3.01
A17G G50U A66G G92C C95U G141A | ≤ -4.2
A17U G84U | -1.75
A17U A73U C93U A120G | -1.86
A17U G50U C63U C93U C103U G126A C132U | -3.74

Variant | polymerase ribozyme fitness (log ratio)
C18A U33A U56A G88A C114U U130A | ≤ -4.2
C18G A64C U82G A137G | ≤ -4.2
A17U U101A U139G A142U | -3.82
C18G C36G U78A C85A | ≤ -4.2
A17U G58U G74C G86A | ≤ -4.2
A17G G50A U55G A89U C93A | ≤ -4.2
C18G A21G C93U C149A | ≤ -4.2
C18G A24U C76A C95U G141A | -3.98
A17U A22C A23G G25A G50C U55A C75A G80A C87U U90C C103A | ≤ -4.2
C18U A21C G141A | 0.0565
C18G C57U | -0.371
C18G G80C | ≤ -4.2
A17U A28C C87A | ≤ -4.2
A17G G70A C75G C96U C99G | -4.15
A17G G58C U61G G71U G86C U104G G143C | ≤ -4.2
A17G C51G U55A C57U G92U C103A C108A | ≤ -4.2
A17G G50C A137G U144G | ≤ -4.2
A17G U53C A73G U139A A142U U146G | ≤ -4.2
C18G A23C A29G C51U C72G G81A G140U | ≤ -4.2
C18G A37G A66G G68C C93A G128A | ≤ -4.2
C18A A52G C87A G92C C95A U104A | ≤ -4.2

Variant | polymerase ribozyme fitness (log ratio)
A17U G25C | -4.13
C18G C79G | -3.9
C18G A19U A23C G67C G126A G143U U144C | ≤ -4.2
C18G C54U U78C | -2.12
C18U A20U G59A G94A C116G A142G A150G | ≤ -4.2
A17G U53A C75G A91G A113G G143A | ≤ -4.2
C18G U45C C96U C116A U130C | ≤ -4.2
C18G A24U U55A C69U G74A | -2.16
A17U A28U C38U | ≤ -4.2
A17U U146C | -0.884
A17U A19U C93G U111G | ≤ -4.2
A17G G83U A107U U135C | ≤ -4.2
C18G U146C | -0.0606
C18G A30U C35A U61G G62U C93U U111G G124A | ≤ -4.2
C18A A28G A30C G46A G74C | ≤ -4.2
A17U U56G C125G | -1.81
A17U A49U C85A A97U | ≤ -4.2
A17G G83U U134A | -2.39
A17U A22U C51U U55A C75A C85U U101A C114U A115G G124A | ≤ -4.2
A17U G42A A91C A122U G136C | ≤ -4.2
C18G A20U G84U | -3.75
